Test results published in patent publication US20120108796A1 (Bayer, published 2012).
Numbering of substitutions follows the chain as printed. Names and notes keep the numbering of the source.

B1: 2A8 wild-type Fab (Fab, V domains shown)
VH: QVQLVESGGGLVQPGGSLRLSCAASGFTFRSYGMSWVRQAPGKGLEWVSSIRGSSSSTYYADSVKGRFTISRDNSKNTLYLQMNSLRAEDTAVYYCARKYRYWFDYWGQGTLVTVSS
VL: DIELTQPPSVSVAPGQTARISCSGDNLRNYYAHWYQQKPGQAPVVVIYYDNNRPSGIPERFSGSNSGNTATLTISGTQAEDEADYYCQSWDDGVPVFGGGTKLTVLG
B2: 2A8 HC I51E (Fab, V domains shown)
VH: B1 VH with I51E
VL: B1 VL
B3: 2A8 HC K99L (Fab, V domains shown)
VH: B1 VH with K99L
VL: B1 VL
B4: 2A8 HC K99V (Fab, V domains shown)
VH: B1 VH with K99V
VL: B1 VL
B5: 2A8 HC S31P (Fab, V domains shown)
VH: B1 VH with S31P
VL: B1 VL
B6: 2A8 HC S31V (Fab, V domains shown)
VH: B1 VH with S31V
VL: B1 VL
B7: 2A8 HC S35D (Fab, V domains shown)
VH: B1 VH with S35D
VL: B1 VL
B8: 2A8 HC S54F (Fab, V domains shown)
VH: B1 VH with S54F
VL: B1 VL
B9: 2A8 LC D91K (Fab, V domains shown)
VH: B1 VH
VL: B1 VL with D91K
B10: 2A8 LC D91L (Fab, V domains shown)
VH: B1 VH
VL: B1 VL with D91L
B11: 2A8 LC D91W (Fab, V domains shown)
VH: B1 VH
VL: B1 VL with D91W
B12: 2A8 LC Y48F (Fab, V domains shown)
VH: B1 VH
VL: B1 VL with Y48F
B13: 2A8-127 (Fab, V domains shown)
VH: B1 VH with S35D, K99L
VL: B1 VL with Y48F, N51V, G56D, V96W
B14: 2A8-143 (Fab, V domains shown)
VH: B1 VH with S35D, S55R, K99L
VL: B1 VL with Y48F, N51V, D91L, V96W
B15: 2A8-200 (Fab, V domains shown)
VH: B1 VH with S35D, S55R, K99L
VL: B1 VL with Y48F, N51V, D91W
B16: 2A8-216 (Fab, V domains shown)
VH: B1 VH with S31V, I51D, S55R, K99V
VL: B1 VL with Y48F, D91L, V96W
B17: 4B7 wild-type Fab (Fab, V domains shown)
VH: QVQLQQSGPGLVKPSQTLSLTCAISGDSVSSNSAAWSWIRQSPGRGLEWLGIIYKRSKWYNDYAVSVKSRITINPDTSKNQFSLQLNSVTPEDTAVYYCARWHSDKHWGFDYWGQGTLVTVSS
VL: DIVMTQSPLSLPVTPGEPASISCRSSQSLVFSDGNTYLNWYLQKPGQSPQLLIYKGSNRASGVPDRFSGSGSGTDFTLKISRVEAEDVGVYYCQQYDSYPLTFGQGTKVEIKR
B18: 4B7 HC D62R (Fab, V domains shown)
VH: B17 VH with D62R
VL: B17 VL
B19: 4B7 HC H107M LC F31I (Fab, V domains shown)
VH: B17 VH with H107M
VL: B17 VL with F31I
notes: Fab; tags as m115; also called HC H107M LC F311 (so in the source)

What was measured:
[1] = target: T1, recombinant TFPI of the FXa restoring assay (human, mouse or rat; species not stated for Tables 9 and 10); experiment: cell-based or functional assay
[2] = target: T1, recombinant TFPI of the FXa restoring …; experiment: cell-based or functional assay; remark: listed apart in the source
[3] = target: T2, human TFPI (tissue factor pathway inhibitor) (human, UniProt P10646 29-304, limits assumed); experiment: competitive ELISA
T2 construct: bought protein, coated on ELISA plates or amine-coupled to a CM5 chip; also called hTFPI
T2 sequence (looked up): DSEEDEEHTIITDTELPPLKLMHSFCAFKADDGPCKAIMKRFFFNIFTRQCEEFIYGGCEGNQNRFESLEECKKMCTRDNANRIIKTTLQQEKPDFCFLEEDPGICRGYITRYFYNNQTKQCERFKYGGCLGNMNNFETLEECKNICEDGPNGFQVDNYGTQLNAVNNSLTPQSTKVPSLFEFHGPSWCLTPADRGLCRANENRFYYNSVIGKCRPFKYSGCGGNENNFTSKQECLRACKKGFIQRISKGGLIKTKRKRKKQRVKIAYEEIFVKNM
Experimental: Briefly, MTP plates (either Mesoscale Discovery, L21XA-4 or Nunc maxisorp black, 460518) were coated with 0.04-2 lug/m1 either human or mouse TFPI diluted in phosphate buffered saline (PBS) or in coating buffer (Candor Bioscience GmbH, 121500), respectively and incubated over night at 4° C. After washing, plates were blocked with 3% bovine serum albumin (Sigma, A4503) in PBST for 1 hour at room temperature and the washing step was repeated. For binding of the antibodies 10-25 µl of culturing supernatants normalized to their respective antibody expression level (if not otherwise indicated) were added to the plates for 1 hour at RT followed by washing with PBST. Bound wild-type and variants were then either detected by an epitope tag specific antibody or a competition step was included. For competition, 50-300 nM competitor or free antigen was added and incubated for 20 minutes to 24 hours at room temperature. […] For signal detection in maxisorp plates 10 [tM amplex red substrate (Invitrogen, A12222) was added and incubated for 10 to 30 minutes at room temperature in the dark followed by fluorescence measurement. For the detection in MSD plates MSD read buffer T was diluted to 2× in H2O (Mesoscale Discovery, R92TC-1), added to the plates and the electrochemiluminiscence signal was detected at 620 nm using the Mesoscale Discovery Sector Imager 6000. […]

Row | Binder | EC50, FXa restoring assay [1] [nM] | Improvement of EC50 vs 2A8 wt [1] [fold] | IC 50, FXa restoring assay [2] [µg/mL] | Improvement of IC50 vs 2A8wt [2] [fold] | Improvement of IC50 vs 4B7wt [2] [fold] | variant/wild-type [3] [ratio]
1 | B1 | 7.91 | 1 | 0.7 | 1 | – | –
2 | B2 | – | – | 0.76 | 0.9 | – | –
3 | B3 | 1 | 7.9 | 0.181 | 3.9 | – | –
4 | B4 | – | – | 0.39 | 1.6 | – | –
5 | B5 | – | – | 0.33 | 1.7 | – | –
6 | B6 | – | – | 0.201 | 3.5 | – | –
7 | B7 | – | – | 0.55 | 1.1 | – | –
8 | B8 | – | – | 0.35 | 2 | – | –
9 | B9 | – | – | 0.34 | 1.9 | – | –
10 | B10 | – | – | 0.37 | 1.7 | – | –
11 | B11 | – | – | 0.23 | 3 | – | –
12 | B12 | – | – | 0.34 | 1.9 | – | –
13 | B13 | 0.44 | 18.2 | – | – | – | –
14 | B14 | 0.5 | 15.8 | – | – | – | –
15 | B15 | 0.81 | 9.7 | – | – | – | –
16 | B16 | 1.08 | 7.3 | – | – | – | –
17 | B17 | – | – | 1.46 | – | 1 | –
18 | B18 | – | – | 0.058 | – | 25 | –
19 | B19 | – | – | – | – | – | 3.7
